One test relates to necrotic Jurkat T cells. Put plainly: Flow cytometry binding to necrotic cells. Format: cell-based. Conditions: 10 μg/ml. The procedure: Jurkat T cells (ATCC), were grown in RPMI, supplemented with glutamine, penicillin, streptomycin and 10% (v/v) heat inactivated FCS (all from Invitrogen). Necrosis was induced by heat whereby the cells were brought to a concentration of 10^6 per ml and incubated at 56° C. for 30 minutes in RPMI 1640 without FCS (Trouw et al. (2005) J. Exp. Med. 201, 1937-1948).
Binding of FHCCP6-8 variants to necrotic cells was analyzed using flow cytometry. Protein binding was analyzed by incubating cells with varying concentrations of the FHCCP6-8 variants (0 to 10 μg/ml) in FACS binding buffer (10 mM HEPES, 150 mM NaCl, 5 mM KCl, 1 mM MgCl2, 1.8 mM CaCl2), with shaking for 30 minutes at room temperature. After washing twice in the same buffer, cells were stained with goat anti-FH polyclonal antibodies (Quidel) for 30 minutes at room temperature. This was followed by matched FITC-labelled secondary antibodies (Dako).

Test [1] in a line: Microtitre plate assay: biotinylated proteins binding to immobilized heparin oligosaccharides of defined length. The text has this:
FIG. 10: Comparisons of the interactions of FHCCP6-8(H384) and the corresponding Y384 variant with heparin oligomers of different lengths. The binding of biotinylated-FHCCP6-8(H384) (black bars) or biotinylated-FHCCP6-8(Y384) (grey bars) to heparin oligosaccharides (dp4 to dp18) immobilized on microtitre plates plasma polymerized with allylamine. All values are plotted as mean absorbance values (n=8)±S.E.
The heparin/HS/DS-binding activities of the FHCCP6-8(H384) and FHCCP6-8(Y384) variants (using biotinylated-FHCCP6-8 constructs), and in some cases full-length Factor H (detected with an antibody), were compared using an assay where the glycosaminoglycans (GAGs) were immobilized on allylamine-coated EpranEx plates (Mahoney et al (2004) Anal. Biochem. 330, 123-129), kindly supplied by Plasso Technology Ltd., Sheffield, UK. Previously, we have shown that heparin/HS can bind non-covalently to surfaces plasma polymerized with allylamine in such a way that these GAGs can still associate with a wide-range of proteins (Mahoney et al. (2005) J. Biol. Chem. 280, 27044-27055; Mahoney et al. (2004) ibid).
(§1) In the case of the biotinylated FHCCP6-8(H384) and FHCCP6-8(Y384) constructs, bound material was detected by adding 200 μl/well of a 1:10,000 dilution of ExtrAvidin alkaline phosphatase (Sigma, Cat. No. E-2636) for 30 minutes. […]

Test [2] can be described thus: Microtitre plate assay: biotinylated proteins binding to unfractionated heparin immobilized on EpranEx plates. The procedure:
The heparin/HS/DS-binding activities of the FHCCP6-8(H384) and FHCCP6-8(Y384) variants (using biotinylated-FHCCP6-8 constructs), and in some cases full-length Factor H (detected with an antibody), were compared using an assay where the glycosaminoglycans (GAGs) were immobilized on allylamine-coated EpranEx plates (Mahoney et al (2004) Anal. Biochem. 330, 123-129), kindly supplied by Plasso Technology Ltd., Sheffield, UK. […]
The following GAG preparations were analyzed: unfractionated heparins corresponding to the 2nd, 4th and 5th International Standards (denoted here as 2IS, 4IS and 5IS, respectively (Mulloy et al. (2000) Thromb. Haemost. 52, 148-153)); enoxaparin, dalteparin and LMr heparin from Sigma (Cat. No. H3400); selectively desulfated heparins prepared from 2IS heparin as described in Mulloy et al. (1994) Carbohydr. […]
as §1
(§2) In these plate assays all data points were determined in quadruplicate from each of two independent experiments.

For a further test, the system named is Linearized pcDNA3-vector. Description: Protein/DNA binding assay (agarose gel migration). The following applies: 5 μg protein, 30 ng DNA, 30 minutes at 37° C. As for the experimental part:
Plasmid pcDNA3 DNA (Invitrogen) was linearized using EcoR1 (Fermentas) in a buffer accompanying the enzyme.
Linearized pcDNA3-vector (30 ng) was incubated with 5 μg of FHCCP(H384), FHCCP6-8(Y384) or full length FH (positive control) in the binding buffer (as described above) in a total volume of 20 μl for 30 minutes at 37° C. The negative control contained no protein. DNA loading buffer (0.25% (w/v) bromophenol blue, 0.25% (w/v) xylene cyanol, 30% (v/v) glycerol in deionized water) was added (1 μl) and the samples were run on an agarose gel (0.8% (w/v), Cambrex) containing ethidium bromide (Sigma) and visualized by UV. Changes in DNA migration served as a means of evaluating the presence of DNA-protein complexes.

Test [3] can be described thus: Microtitre plate assay: biotinylated-4IS heparin binding to immobilized proteins. The procedure: Alternatively, the unlabelled FHCCP6-8(H384), FHCCP6-8(Y384) and mutant proteins (i.e., K370A, R386A, K387A in the context of the FHCCP6-8(H384) construct) were adsorbed at 1 μg/ml in PBS onto microtitre plates (Nunc Maxisorb, Kastrup, Denmark) and their ligand-binding activities at pH 7.3 were determined using biotinylated-4IS heparin essentially as described in Mahoney et al. (2005) ibid. Plate assays were carried out in 20 mM HEPES, 130 mM NaCl, 0.05% (v/v) Tween-20, pH 7.3 and the level of bound heparin determined as described above for the biotinylated proteins.
as §2

The record followed here is US7829301B2, “Screening assays for binding antagonists of the AMD-associated variant of factor H (H384)” (The University of Manchester, priority 2006, dated 2010).

B1: FHCCP6-8(H384): recombinant protein of Factor H CCPs 6-8, H384 allotype, with N-terminal non-authentic glycine (SEQ ID NO: 1) (protein, listed as Homo sapiens)
chain: MGTLKPCDYPDIKHGGLYHENMRRPYFPVAVGKYYSYYCDEHFETPSGSYWDHIHCTQDGWSPAVPCLRKCYFPYLENGYNQNHGRKFVQGKSIDVACHPGYALPKAQTTVTCMENGWSPTPRCIRVKTCSKSSIDIENGFISESQYTYALKEKAKYQCKLGYVTADGETSGSITCGKDGWSAQPTCI
modifications: VARIANT (1)...(188) Protein sequence of the FHCCP6-8 (H384) construct
With B1, the “binding to necrotic cells relative to the other variant” value in the test with necrotic Jurkat T cells is “binds necrotic cells better”. Moreover, the “binding to heparin oligosaccharides relative to the other variant” value in test [1] (4- to 18-mers) is on record as “bound better”. For the same molecule, in test [2] (2IS, 4IS and 5IS), the “binding to immobilized unfractionated heparins compared to FHCCP6-8(Y384)” value was “more of the FHCCP6-8(H384) protein bound”. Moreover, the “DNA-protein complex formation (DNA migration in agarose gel)” value with Linearized pcDNA3-vector is “retained DNA in its protein-complex form more efficiently”.

B2: FHCCP6-8(Y384): recombinant Factor H CCPs 6-8, Y384 variant obtained by site-directed mutagenesis (SEQ ID NO: 3) (protein, listed as Homo sapiens)
chain: MGTLKPCDYPDIKHGGLYHENMRRPYFPVAVGKYYSYYCDEHFETPSGSYWDHIHCTQDGWSPAVPCLRKCYFPYLENGYNQNYGRKFVQGKSIDVACHPGYALPKAQTTVTCMENGWSPTPRCIRVKTCSKSSIDIENGFISESQYTYALKEKAKYQCKLGYVTADGETSGSITCGKDGWSAQPTCI
modifications: VARIANT (1)...(188) FHCCP6-8 (Y384 allotype of mature Factor H)
B2: the “oligosaccharide length giving maximal binding” value in test [1] was approximately 12 sugars. For the same molecule, the “binding to 4IS heparin relative to FHCCP6-8(H384)” value is given as “bind less well” in test [2] (heparin bound to allylamine-coated surface, biotinylated proteins) and “bind less well” in test [3]. In the test on Linearized pcDNA3-vector, the “DNA-protein complex formation (DNA migration in agarose gel)” value was “migrated mainly in the non-complexed form”.
